Measured values as given in publication PMC11417369, “DNA sequence and chromatin differentiate sequence-specific transcription factor binding in the human malaria parasite Plasmodium falciparum”.
Residue numbers refer to the chain shown, from its start.

T1: PF3D7_0420300 D1 (Plasmodium falciparum, UniProt Q8I1N6 1956-2015)
T1 sequence: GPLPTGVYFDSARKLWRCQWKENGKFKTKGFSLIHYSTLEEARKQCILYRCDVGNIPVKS

T2: AP2-LT D1 (Plasmodium falciparum, UniProt Q8IAM1 2520-2577)
T2 sequence: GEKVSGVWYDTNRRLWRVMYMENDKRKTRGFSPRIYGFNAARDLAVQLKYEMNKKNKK

T3: AP2-HC D1 (Plasmodium falciparum, UniProt Q8IKR9 1316-1374)
T3 sequence: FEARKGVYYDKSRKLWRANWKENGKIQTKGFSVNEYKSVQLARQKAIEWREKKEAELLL

B1: CACACA_site365 (dsDNA)
DNA 1: CACCCCCACAGACACACACACACACCCACATATATA
DNA 2: TATATATGTGGGTGTGTGTGTGTGTCTGTGGGGGTG
B2: CACACA_site7658 (dsDNA)
DNA 1: AATAAAAAGGAACACACACACACACGGATATAAATA
DNA 2: TATTTATATCCGTGTGTGTGTGTGTTCCTTTTTATT
B3: CACACA_site6215 (dsDNA)
DNA 1: AAAAAAAAAAGACACACACACACATAAATATAAATA
DNA 2: TATTTATATTTATGTGTGTGTGTGTCTTTTTTTTTT
B4: CACACA_site2305 (dsDNA)
DNA 1: TTCCCCCCCAGACACACACACACATACATACCACAT
DNA 2: ATGTGGTATGTATGTGTGTGTGTGTCTGGGGGGGAA
B5: CACACA_site4553 (dsDNA)
DNA 1: AAAAAAAGATTATACACACACATATATAAACATACA
DNA 2: TGTATGTTTATATATGTGTGTGTATAATCTTTTTTT
B6: CACACA_site7754 (dsDNA)
DNA 1: TAAAATAAAACAAACACACACACACGGACACAAAAA
DNA 2: TTTTTGTGTCCGTGTGTGTGTGTTTGTTTTATTTTA
B7: CACACA_negctrl_site1599 (dsDNA)
DNA 1: TTTTTAAATTATTTGAAAAAAAGAAAATTATAAACA
DNA 2: TGTTTATAATTTTCTTTTTTTCAAATAATTTAAAAA
B8: CACACA_negctrl_site1027 (dsDNA)
DNA 1: ATTAAAAAGACAAAAAAAAAATTTTTTTTTTTTTTT
DNA 2: AAAAAAAAAAAAAAATTTTTTTTTTGTCTTTTTAAT
B9: CACACA_negctrl_site803 (dsDNA)
DNA 1: TTTTGTAAAAAAAAAAAAAAAGGAAAATTAAAATAA
DNA 2: TTATTTTAATTTTCCTTTTTTTTTTTTTTTACAAAA
B10: CACACA_site8410 (dsDNA)
DNA 1: AAAAAATCACAACACACACACACACTAATAAAAAAA
DNA 2: TTTTTTTATTAGTGTGTGTGTGTGTTGTGATTTTTT
B11: CACACA_site5576 (dsDNA)
DNA 1: AAAAAAAAAAAACACACACACACACCGACACATACA
DNA 2: TGTATGTGTCGGTGTGTGTGTGTGTTTTTTTTTTTT
B12: CACACA_site7363 (dsDNA)
DNA 1: B11 DNA 1 with A11G, C26G
DNA 2: B11 DNA 2 with G11C, T26C
B13: CACACA_site2431 (dsDNA)
DNA 1: AACAAACACAGACACACACACACACCCAAATGATTA
DNA 2: TAATCATTTGGGTGTGTGTGTGTGTCTGTGTTTGTT
B14: CACACA_negctrl_site1674 (dsDNA)
DNA 1: TATTTTAATTATAAATTTAAAAAAAAAAAGAAAAAA
DNA 2: TTTTTTCTTTTTTTTTTTAAATTTATAATTAAAATA
B15: CACACA_site1724 (dsDNA)
DNA 1: TATATACGCAAACACACACACACATACACCCACATA
DNA 2: TATGTGGGTGTATGTGTGTGTGTGTTTGCGTATATA
B16: CACACA_negctrl_site640 (dsDNA)
DNA 1: GTATATATATTTCTTTAATAATTAAATTATAAATAT
DNA 2: ATATTTATAATTTAATTATTAAAGAAATATATATAC
B17: CACACA_site362 (dsDNA)
DNA 1: CACCCACACCAACACACACACATATATATATATATA
DNA 2: TATATATATATATATGTGTGTGTGTTGGTGTGGGTG
B18: CACACA_site4689 (dsDNA)
DNA 1: ATAACCTAATAATACACACACATGAATATATATAAT
DNA 2: ATTATATATATTCATGTGTGTGTATTATTAGGTTAT
B19: CACACA_site8345 (dsDNA)
DNA 1: AATACCCAAGGACACACACACACATATATATATATA
DNA 2: TATATATATATATGTGTGTGTGTGTCCTTGGGTATT
B20: CACACA_negctrl_site358 (dsDNA)
DNA 1: TGTTTCCAAAAAAAAAAAAAAAAAAAAAAAAAAAAA
DNA 2: TTTTTTTTTTTTTTTTTTTTTTTTTTTTTGGAAACA
B21: CACACA_site6350 (dsDNA)
DNA 1: CACAAACAGACAAACACACACACACGGACATACATA
DNA 2: TATGTATGTCCGTGTGTGTGTGTTTGTCTGTTTGTG
B22: CACACA_site4184 (dsDNA)
DNA 1: TGAATAAATAAACACACACACATATATATATCTGTA
DNA 2: TACAGATATATATATGTGTGTGTGTTTATTTATTCA
B23: CACACA_negctrl_site1538 (dsDNA)
DNA 1: TTTTTTTTTAAGATGAAGATCAATATATAAATATAT
DNA 2: ATATATTTATATATTGATCTTCATCTTAAAAAAAAA
B24: CACACA_site4721 (dsDNA)
DNA 1: AACATTATAGGACACACACACACATATATATATATA
DNA 2: TATATATATATATGTGTGTGTGTGTCCTATAATGTT
B25: CACACA_negctrl_site934 (dsDNA)
DNA 1: AATTTTATTTAATTTTTTTGGGAAATGATAAAATTT
DNA 2: AAATTTTATCATTTCCCAAAAAAATTAAATAAAATT
B26: CACACA_negctrl_site709 (dsDNA)
DNA 1: TGAAAAAAAAAAAAAAAAAAAAGAAAAAAAAAAAAA
DNA 2: TTTTTTTTTTTTTCTTTTTTTTTTTTTTTTTTTTCA
B27: CACACA_negctrl_site1509 (dsDNA)
DNA 1: TTTAAAAAATGTTATATTATATAATTAAAAAAAAAA
DNA 2: TTTTTTTTTTAATTATATAATATAACATTTTTTAAA
B28: CACACA_site2430 (dsDNA)
DNA 1: CAAACAAACAGACACACACACACACCCAAAAATGAT
DNA 2: ATCATTTTTGGGTGTGTGTGTGTGTCTGTTTGTTTG
B29: CACACA_negctrl_site22 (dsDNA)
DNA 1: TTTTAAGATATAAATTAATACTTATATATATAGATA
DNA 2: TATCTATATATATAAGTATTAATTTATATCTTAAAA

Each binder was assayed against T1, PF3D7_0420300 D1 (assay: gcPBM; about 25 ug protein; PBS, 1% milk, 0.2 mg/ml BSA, salmon testes DNA, 0.03% Triton X-100). Conditions: tags: N-terminal GST (pGEX-4T-1), kept; label: surface-attached array probe.

Binder	binding signal
B1	10.4 ln median PBM intensity, better of two orientations
B2	10.5 ln median PBM intensity, better of two orientations
B3	10.3 ln median PBM intensity, better of two orientations
B4	10.4 ln median PBM intensity, better of two orientations
B5	10.1 ln median PBM intensity, better of two orientations
B6	10.4 ln median PBM intensity, better of two orientations

The binders below were run against T2, AP2-LT D1 in the same assay as above. Conditions: tags: N-terminal GST (pGEX-4T-1), kept; label: surface-attached array probe.

Binder	binding signal
B7	8.26 ln median PBM intensity, better of two orientations
B8	8.44 ln median PBM intensity, better of two orientations
B9	8.33 ln median PBM intensity, better of two orientations
B10	10.7 ln median PBM intensity, better of two orientations
B11	10.6 ln median PBM intensity, better of two orientations
B12	10.2 ln median PBM intensity, better of two orientations
B13	10.8 ln median PBM intensity, better of two orientations
B14	8.52 ln median PBM intensity, better of two orientations
B15	10.4 ln median PBM intensity, better of two orientations
B16	8.59 ln median PBM intensity, better of two orientations
B17	10.8 ln median PBM intensity, better of two orientations
B18	9.77 ln median PBM intensity, better of two orientations
B19	10.8 ln median PBM intensity, better of two orientations
B20	8.01 ln median PBM intensity, better of two orientations
B21	10.2 ln median PBM intensity, better of two orientations
B22	10.1 ln median PBM intensity, better of two orientations
B23	8.23 ln median PBM intensity, better of two orientations
B24	10.7 ln median PBM intensity, better of two orientations
B25	8.39 ln median PBM intensity, better of two orientations
B26	8.21 ln median PBM intensity, better of two orientations
B27	8.38 ln median PBM intensity, better of two orientations
B28	10.6 ln median PBM intensity, better of two orientations
B29	8.45 ln median PBM intensity, better of two orientations

Each binder was assayed against T3, AP2-HC D1 in the same assay as above. Conditions: tags: N-terminal GST (pGEX-4T-1), kept; label: surface-attached array probe.

Binder	binding signal
B1	10.8 ln median PBM intensity, better of two orientations
B7	9.26 ln median PBM intensity, better of two orientations
B8	9.26 ln median PBM intensity, better of two orientations
B9	9.16 ln median PBM intensity, better of two orientations
B10	12.3 ln median PBM intensity, better of two orientations
B11	12.5 ln median PBM intensity, better of two orientations
B12	11.9 ln median PBM intensity, better of two orientations
B13	11.7 ln median PBM intensity, better of two orientations
B14	9.42 ln median PBM intensity, better of two orientations
B2	11.7 ln median PBM intensity, better of two orientations
B15	11.9 ln median PBM intensity, better of two orientations
B16	9.37 ln median PBM intensity, better of two orientations
B17	11.7 ln median PBM intensity, better of two orientations
B3	12.2 ln median PBM intensity, better of two orientations
B18	10.4 ln median PBM intensity, better of two orientations
B19	11.8 ln median PBM intensity, better of two orientations
B4	12.1 ln median PBM intensity, better of two orientations
B20	8.96 ln median PBM intensity, better of two orientations
B5	10.7 ln median PBM intensity, better of two orientations
B21	10.6 ln median PBM intensity, better of two orientations
B22	10.8 ln median PBM intensity, better of two orientations
B23	8.98 ln median PBM intensity, better of two orientations
B24	11.9 ln median PBM intensity, better of two orientations
B25	9.22 ln median PBM intensity, better of two orientations
B26	8.7 ln median PBM intensity, better of two orientations
B27	9.35 ln median PBM intensity, better of two orientations
B28	12.2 ln median PBM intensity, better of two orientations
B6	11.9 ln median PBM intensity, better of two orientations
B29	9.27 ln median PBM intensity, better of two orientations
